Measurements from US20240409639A1 (CELLDEX THERAPEUTICS, published 2024).

How the values were obtained:
[1] = biological target: T1, human PD-1 expressed on cells (human, UniProt Q15116 25-288); assay: flow cytometry on HEK293 cells expressing human PD-1
T1 construct: whole, on cells; also called HEK293 cells expressing human PD-1; PD1 Effector cells
Procedure: After 20 minutes, the cells were washed with PBS containing 0.1% BSA and 0.05% NaN₃ (PBA) and the bound antibodies were detected by incubating the cells with a PE labeled goat anti-human IgG Fc-specific probe. The excess probe was washed from the cells with PBA and the cell associated fluorescence was determined by analysis using a FACSCanto II™ instrument (BD Biosciences, NJ, USA) according to the manufacturer's directions.

[2] = biological target: T2, recombinant human PD-1-msFc (human, UniProt Q15116 25-167, limits assumed); assay: ELISA, plate coated with recombinant human PD-1-msFc
T2 construct: not shown: mouse Fc ('msFc')
Procedure: Microtiter plates were coated with recombinant human PD-1-msFc in PBS, and then blocked with 5% bovine serum albumin in PBS. […] The plates were washed with PBS/Tween and then incubated with a goat-anti-human IgG Fc-specific polyclonal reagent conjugated to horseradish peroxidase at 37° C. After washing, the plates were developed with HRP substrate, and analyzed at OD 450 using a microtiter plate reader.

T2 sequence (Q15116 25-167 limits assumed): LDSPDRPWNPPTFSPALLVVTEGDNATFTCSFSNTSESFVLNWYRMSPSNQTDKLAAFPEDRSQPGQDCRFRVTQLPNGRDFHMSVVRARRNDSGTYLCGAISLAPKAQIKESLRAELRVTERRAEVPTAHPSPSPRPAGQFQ
T1 sequence (Q15116 25-288): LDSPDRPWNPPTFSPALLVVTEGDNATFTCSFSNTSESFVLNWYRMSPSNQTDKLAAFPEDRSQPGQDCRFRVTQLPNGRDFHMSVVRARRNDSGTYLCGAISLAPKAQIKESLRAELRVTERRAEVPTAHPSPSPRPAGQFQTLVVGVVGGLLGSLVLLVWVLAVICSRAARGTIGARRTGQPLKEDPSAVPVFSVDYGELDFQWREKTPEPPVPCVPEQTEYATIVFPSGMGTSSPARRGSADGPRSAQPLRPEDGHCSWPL

binding result [1]: binds
binding result [2]: binds
B1: bispecific construct CDX-585 (bispecific antibody, human IgG1, kappa)
heavy: QVQLVQSGAEVVKPGASVKISCKASGYTFTDYVMHWVRQAPGQSLEWMGVISTYHIPAVYNQKFKGKATMTVDTSTSTVYLELSSLRSEDTAVYYCAREVYGESYYFDVWGQGTTVTVSSASTKGPSVFPLAPSSKSTSGGTAALGCLVKDYFPEPVTVSWNSGALTSGVHTFPAVLQSSGLYSLSSVVTVPSSSLGTQTYICNVNHKPSNTKVDKKVEPKSCDKTHTCPPCPAPEAQGGPSVFLFPPKPKDTLYITREPEVTCVVVDVSHEDPEVKFNWYVDGVEVHNAKTKPREEQYNSTYRVVSVLTVLHQDWLNGKEYKCQVSNKALPAPIEKTISKAKGQPREPQVYTLPPSRDELTKNQVSLTCLVKGFYPSDIAVEWESNGQPENNYKTTPPVLDSDGSFFLYSKLTVDKSRWQQGNVFSCSVMHEALHNHYTQKSLSLSPGKGSSGGGGSDIQMTQSPSSLSASVGDRVTITCRASENIYSYLAWYQQKPGKAPKFLVYNADTLAEGVPSRFSGSGSGTDFTLTISSLQPEDFATYYCQHHYGTPFTFGCGTKLEIKGGGGSGGGGSGGGGSGGGGSQVQLVQSGAEVKKPGASVKVSCKASGYSFTGYTMHWVRQAPGQCLEWMGLINPYTGGTDYNQKFQGRVTMTVDRSTSTAYMELSSLRSEDTAVYYCARERPGGSQFIYYYALDYWGQGTTVTVSS
light: DIVMTQTPLSLPVTPGEPASISCRSSQSIVHSAGNTYLEWYLQKPGQSPQLLIYKVSNRFSGVPDRFSGSGSGTDFTLKISRVEAEDVGVYYCFQGSHVPYTFGGGTKVEIKRTVAAPSVFIFPPSDEQLKSGTASVVCLLNNFYPREAKVQWKVDNALQSGNSQESVTEQDSKDSTYSLSSTLTLSKADYEKHKVYACEVTHQGLSSPVTKSFNRGEC
notes: Tetravalent format, bivalent for each target; The Fc carries L234A, L235Q, K322Q (AQQ) and M252Y, S254T, T256 (YTE); The scFv is stabilised by a disulfide from Gly to Cys at positions 558 and 629 of the mature heavy chain; also called E1A9-7B1; bsAb
